From the supplement of paper PMC10567573

B1: KRT13 (parent)
chain: YGGGLGGGFGGGFAGGFVDFGACD
B2: RSAD1 (parent)
chain: YCNFNKYIPRRLEEAAMQKCLVTE

Variants of: B1
Assay: protein stability index of a GFP-peptide fusion (GPS, HEK-293T) (PSI 1-6); higher = more stable
Conditions: c terminus: a fixed tail appended
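Note: lentivirally expressed fusions sorted by FACS into six bins by GFP to DsRed ratio, PSI derived from sequencing read proportions per bin multiplied by bin number.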

Protein stability index, by site and new letter:
G10: F 2.02; T 1.26; S 2.15; V 1.93; E 1.96; R 1.91; K 1.53
G12: W 1.34; L 2.25; E 1.84; M 2.92; R 2.24; F 3.05
F13: A 1.55; H 2.44; T 2.07; V 2.12; D 2.1; K 2.25; E 2.32; G 2.08
G8: S 2.72; A 1.93; K 1.24; P 1.75; I 2.44; R 1.67
A14: F 2.8; N 1.48; M 3.11; H 3.03; I 2.46; R 2.03; V 1.89; D 1.86
G21: W 1.99; T 2.69; D 1.92; P 1.67; S 2.02; E 1.88; V 1.6; F 2.87
G11: I 3.54; Q 1.73; D 2.38; E 2.12; N 2.43; R 1.86; H 1.75
D24: N 3.54; I 5.23; H 1.49; W 3.82; R 2.16
G7: E 1.91; R 1.74; Y 2.36; M 2.46; T 1.49; F 3.32; A 2.41; D 1.89; L 1.81
G16: E 1.69; W 3.21; V 1.87
G2: Y 1.63; F 2.91; R 2.33
G6: N 1.65; V 2.12; Y 1; L 2.86; M 1.81; Q 2.38; F 1.68; E 2.26; C 2.27; K 1.67
V18: S 3.77; Y 1.58; N 1.5; R 2.95; G 3.27; M 1.65; P 1.96; W 2.79; Q 1.92; L 1.38
L5: Q 2.02; P 1.95; N 1.84; Y 2.79; W 3.09; M 1.93; D 2.04; H 1.8; I 2.27; S 1.36; E 2.51; R 2.62
F9: S 1.85; Q 2.1; L 1.76; Y 1.69; E 2.65; K 1.64; V 1.94; H 2.5
A22: H 1.54; K 1.98; I 1.33; M 2.09; Q 2.34
C23: Y 1.6; R 2.79; N 1.76; S 1.92; G 1.83; A 3.97; D 1.31; H 2.2; P 1.8
F20: Y 1.5; R 1.78; K 2.11; P 1.69; W 2.62; D 2.19; A 1.69
D19: R 1.96; W 3.27; V 2.61; P 1.32; A 3.27; Y 2.33; G 2.41
G4: L 2.14; N 1.8; A 1.89; Q 1.68; V 1.55; F 1.7; M 1.21; H 1.6
Y1: Q 3.12; W 2.08; C 1.52; G 3.48; A 2.87; D 3.61; P 2.75; N 3.65
G15: D 2.03; M 4.08; K 1.18; S 1.77; R 2.42; A 1.2; N 2.55; W 1.58
G3: N 2.2; E 2.33; H 1.9; V 2.48; R 2.27; F 1.88
F17: K 1.96; L 1.09; E 2.44; H 2.06; R 1.57; I 1.23; M 2.11; Y 2.01; Q 1.93; G 1.68; A 2.07

Variants of: B2
Assay: as above
Conditions: c terminus: a fixed tail appended

Protein stability index, by site and new letter:
N3: K 1.84; H 2.74; W 1.96; Q 2.04; V 1.85; I 1.61
R11: N 1.61; T 1.95; S 1.44; L 2.57; Y 1.48; A 3.42; K 2.14
E24: H 2.08; T 1.44; Q 2.38; M 2.84; F 2.77; A 3.14; C 3.44; Y 2.16; S 1.64
E14: G 3; R 2.33; F 2.31
L21: N 2.19; G 2.03; V 2.01; M 1.42; I 1.79; K 2.67
C2: H 3.01; W 1.82; G 2.48; P 1.44; N 2.84
A16: V 2.98; N 3.66; K 3.53; Q 2.23; T 2.39
P9: S 2.52; I 2.85; A 2.11; V 2.71; L 2.28; K 1.73; H 2.14; N 1.82; G 2.12
I8: P 1.83; S 2.37; Y 1.5; N 1.68; W 2.26; A 1.69; K 1.71; M 1.85
C20: R 2.55; G 2.9
L12: N 3.28; M 2.83; Y 3.24; C 1.96; G 2.96; T 2; D 2.19; K 2.42; W 4.96; P 2.95; Q 4
R10: Y 2.26; N 2.33; K 1.64; H 1.94
F4: I 1.67; W 2.56; S 2.8; L 2.08
K6: A 2.11; S 2.19; Y 3.05; T 2.79; W 2.56
Y7: N 2.58; A 2.11; D 2.49; T 2.22; G 2.18; S 2.51; K 2.42; L 2
E13: M 2.56; L 2.16; N 3.29; H 3.29; S 1.46; D 3.69
Q18: G 1.76; T 1.89; I 2.76; D 1.84; V 3.15; P 1.96; M 3.17; A 1.75; K 2.15
N5: V 1.19; P 2.07; M 2.72
K19: C 2.08; W 2.37; G 2.12; I 2.25; V 1.48
M17: R 1.71; C 1.72; K 2.85; T 3.45; P 1.92; W 2.1; L 1.96; H 3.23; Q 2.57; I 2.82; Y 2.85
T23: K 2.27; H 2.92; N 2.85; R 1.78; I 2.22; W 2.85; E 1.94; L 1.91; P 3.87; Q 3.64
A15: W 1.04; M 2.14; T 3.34; V 3.4
Y1: M 2.32; G 1.89; L 2.72; A 2.31; P 2.27; I 2.76; W 2.65; K 2.63
V22: L 1.3; P 1.97; K 2.57; Y 1.41; D 1.76; M 2.58; Q 2.5
